The values that follow come from patent US20230227577A1 (MYTHIC THERAPEUTICS, published 2023).

The Kd is the free concentration of one partner at which half of the binding sites on the other are occupied at equilibrium, for simple one-to-one binding. For orientation: kon means the rate constant with which the complex forms. What is called koff is the first-order rate constant of dissociation.

The target in one assay is T1, mouse DLL3 protein (mouse, UniProt O88516 33-490, limits assumed).
T1 construct: also called murine DLL3
T1 sequence (looked up): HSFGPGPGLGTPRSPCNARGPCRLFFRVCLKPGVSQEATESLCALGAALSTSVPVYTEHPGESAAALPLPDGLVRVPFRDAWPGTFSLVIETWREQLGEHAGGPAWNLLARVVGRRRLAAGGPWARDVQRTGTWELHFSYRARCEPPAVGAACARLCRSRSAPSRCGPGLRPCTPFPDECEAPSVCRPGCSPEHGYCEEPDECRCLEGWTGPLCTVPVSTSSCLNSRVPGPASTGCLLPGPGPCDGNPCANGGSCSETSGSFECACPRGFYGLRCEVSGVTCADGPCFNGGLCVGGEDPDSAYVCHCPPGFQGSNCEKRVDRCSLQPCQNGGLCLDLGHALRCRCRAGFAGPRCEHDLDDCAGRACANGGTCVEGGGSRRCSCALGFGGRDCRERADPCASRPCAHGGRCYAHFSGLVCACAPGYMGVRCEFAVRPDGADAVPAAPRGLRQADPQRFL
The assay can be described thus: Octet (DLL3 on AR2G tips), ELISA and FACS; values only in FIG. 3. For orientation: BLI is a label-free optical method that tracks binding on a fibre tip over time.

Another assay addresses T2, mouse DLL3 on CHO cells (mouse, UniProt O88516 33-592).
T2 construct: whole, on cells; also called CHO cells expressing mouse DLL3
T2 sequence (looked up): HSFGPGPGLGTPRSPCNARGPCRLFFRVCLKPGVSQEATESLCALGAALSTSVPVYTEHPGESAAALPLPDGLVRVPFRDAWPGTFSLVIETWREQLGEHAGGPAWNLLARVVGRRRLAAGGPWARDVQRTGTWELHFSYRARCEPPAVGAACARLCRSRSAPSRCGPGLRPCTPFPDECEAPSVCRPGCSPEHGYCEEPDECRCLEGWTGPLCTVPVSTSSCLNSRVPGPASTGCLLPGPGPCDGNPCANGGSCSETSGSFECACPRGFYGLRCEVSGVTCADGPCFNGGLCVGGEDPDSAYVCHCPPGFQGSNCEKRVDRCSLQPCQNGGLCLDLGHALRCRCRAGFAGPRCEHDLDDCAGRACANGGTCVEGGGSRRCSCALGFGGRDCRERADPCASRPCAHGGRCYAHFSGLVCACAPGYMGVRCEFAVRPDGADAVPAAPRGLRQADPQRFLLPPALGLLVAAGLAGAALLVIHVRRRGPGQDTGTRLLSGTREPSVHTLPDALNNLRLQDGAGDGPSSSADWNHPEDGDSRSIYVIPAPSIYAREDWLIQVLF
Kind of assay: flow cytometry (FACS) on CHO cells expressing mouse DLL3. The method, then: (§1) Additional experiments were carried out to further characterize the binding properties of the anti-DLL3 constructs. Binding properties tested include dissociation constant (KD), off-rate (koff), binding to DLL3 protein by ELISA and binding to CHO cells expressing human, cyno or mouse DLL3. To obtain off-rate (koff), human biotinylated DLL3 was immobilized on Octet SA tips, and cynomolgus or mouse DLL3 was immobilized on Octet AR2G tips. For each DLL3 protein, the binding to a dilution series of each anti-DLL3 construct was measured using Fortebio Octet Red. The dissociation constant (KD), off-rate (koff) and other kinetic parameters for each anti-DLL3 construct were calculated using a 1:1 binding model. In addition, binding of these anti-DLL3 constructs to CHO cells expressing human, cyno or mouse DLL3 protein was analyzed using flow cytometry (FACS).

Assay [1] concerns the target T3, DLL3 target antigen coated on Octet SA tips (binning experiment) (Homo sapiens (Human), UniProt Q9NYJ7 27-492, Probably biotinylated for capture on streptavidin (SA) tips. The site is not stated.).
T3 sequence: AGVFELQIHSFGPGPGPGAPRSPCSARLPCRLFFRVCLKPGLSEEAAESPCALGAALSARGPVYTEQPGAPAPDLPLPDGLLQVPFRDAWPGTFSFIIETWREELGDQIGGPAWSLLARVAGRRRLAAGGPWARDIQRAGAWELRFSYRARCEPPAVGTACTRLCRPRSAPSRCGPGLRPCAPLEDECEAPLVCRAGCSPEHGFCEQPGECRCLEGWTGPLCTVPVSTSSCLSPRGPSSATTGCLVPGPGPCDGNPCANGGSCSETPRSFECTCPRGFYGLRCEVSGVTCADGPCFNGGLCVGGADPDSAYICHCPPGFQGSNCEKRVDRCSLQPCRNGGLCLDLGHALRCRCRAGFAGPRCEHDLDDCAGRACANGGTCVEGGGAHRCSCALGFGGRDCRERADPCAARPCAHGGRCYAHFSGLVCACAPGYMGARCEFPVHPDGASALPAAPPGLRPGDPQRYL
Kind of assay: Octet binning on DLL3-coated SA tips; competitor: 3HCE4. Here is the method:
(§2) Antibody binning experiments were carried out for 5 anti-DLL3 VHHs and an anti-human DLL3 BiTE (SEQ ID NO: 756). The target antigen was coated on a series of Octet SA tips. Each series of tips was first soaked in a periplasmic extract containing one specific VHH. After the response signals reached saturation, the tips were transferred to a mix of PEs containing again the first VHH (at the same concentration) plus a different VHH (termed secondary VHH) for each tip of the series. Secondary VHH that still bind the target antigen in the presence of the first VHH will show an increased response, as compared to the binding response of the first VHH alone. This was repeated for each VHH as primary VHH until all VHH were tested against each other in both directions (as primary and as secondary binder). From the response data, the bins were deduced for each VHH. 2HCE117 and 3HCE4 show competition with the human DLL3 BiTEs, whereas 3HCE56 and 3HCE87 show a partial competition.

Assay [2] deals with T3, DLL3 target antigen coated on Octet SA …. Kind of assay: Octet binning on DLL3-coated SA tips; competitor: 2HCE27. Here is the method: as §2
Assay [3] has the same target. Kind of assay: Octet binning on DLL3-coated SA tips; competitor: 3HCE56. Here is the method: as §2
Assay [4] has the same target. The assay can be described thus: Octet binning on DLL3-coated SA tips; competitor: 3HCE87. The method, then:
as §2

For assay [5] the target is unchanged. The assay can be described thus: Octet binning on DLL3-coated SA tips; competitor: 2HCE117. Here is the method: as §2
The target is the same in assay [6]. Kind of assay: Octet binning on DLL3-coated SA tips; competitor: DLL3 BiTEs. Here is the method:
as §2

For a further assay, the target named is T4, DLL3 (ELISA DLL3).
T4 construct: also called DLL3 protein in ELISA
T4 chain: T3 sequence
The assay can be described thus: ELISA, ratio of the signal on DLL3 to the signal on the control. (ELISA stands for enzyme-linked immunosorbent assay.)

Assay [7] deals with T5, recombinant human DLL3 protein (human, UniProt Q9NYJ7 27-492, limits assumed).
T5 construct: also called rhu DLL3; human biotinylated DLL3
T5 sequence (looked up): T3 sequence
The assay can be described thus: Fortebio Octet Red, DLL3 immobilised on tips, dilution series of the VHH, 1:1 binding model; KD error 1.90E-10; Full R2 0.9862. The method, then: as §1

The target of assay [8] is T5, recombinant human DLL3 protein. Kind of assay: Fortebio Octet Red, DLL3 immobilised on tips, dilution series of the VHH, 1:1 binding model; kon error 5.82E+02; Full R2 0.9862. Here is the method: as §1
For assay [9] the target is unchanged. Kind of assay: Fortebio Octet Red, DLL3 immobilised on tips, dilution series of the VHH, 1:1 binding model; koff error 4.12E-06; Full R2 0.9862. Here is the method: as §1

B1: 3HCE56 anti-DLL3 VHH (VHH)
VHH: QVQLQESGGGLVQAGGSLRLSCAASGRTFSVDAMGWLRQAPGKEREFVVVIDWTGGSTAYADSVKGRFTISRDNARNTVYLQMNNLKPEDTGVYYCAARERSRTAYDYWGQGTQVTVSS
notes: In the binning assay it was used as a periplasmic extract
With B1, the binding result with mouse DLL3 protein and with mouse DLL3 on CHO cells was “binds” throughout. Further, the “binning response (unit not given)” value is -79.6 in [1]; -3.58 in assay [2]; 0 in assay [3]; -99.1 in assay [4]; 1110 in assay [5]; 44.1 in assay [6]. In the assay with DLL3 (ELISA DLL3), the DLL3 / control was 18.5. Moreover, the Kd in [7] is 21.3 nM. Also, the kon in assay [8] was 68500 M⁻¹ s⁻¹. Further, the koff in assay [9] came to 0.00146 s⁻¹.
